Results reported in patent publication US20220072144A1 (published 2022).

Tests used:
[1] = molecular target: T1, Flag-HER3 (T355I) (human, UniProt P21860 1-1342); test: flow cytometry on HER2-overexpressing and HER3-stably expressing MDA-MB-231 cells, 0.1 to 100 nM
T1 construct: The entry already carries the mutation; Stably expressed in MDA-MB-231 cells, with or without HER2 overexpression; also called mutant-type HER3 (T355I)
Experimental: (§1) Wild-type and various kinds of mutant-type HER3-introduced MDA-MB-231 cells were cultured with RPMI1640 medium (available from Thermo Fisher […] K.K.) containing 10% FBS (available from Hyclone Laboratories, Inc). The cells were separated from the culture plate with TrypLE® Express Enzyme (available from Thermo Fisher […] K.K.), to measure the number of living cells by trypan blue treatment. The same number of living cells were added to a 96-well U-bottom plate, then the cells were precipitated by centrifugation, and the medium was replaced with Stain Buffer (available from Becton, Dickinson and Company). […] The cells were allowed to react on ice for 60 minutes and then washed with Stain Buffer. Further, 100 μL of Stain Buffer or a secondary antibody (Goat anti-Human IgG (H+L) Cross-Adsorbed Secondary Antibody, Alexa Fluor647, Thermo Fisher […] K.K., #A-21445) diluted to 10 μg/mL was added thereto, and the cells were suspended therein. After the cells were allowed to react in the dark on ice for 60 minutes and then washed with Stain Buffer. After the cells were suspended in 100 μL of Stain Buffer, an equal amount of 4% paraformaldehyde phosphate buffer (Wako Pure Chemical Industries, Ltd.) was added thereto, and the mixture was reacted in the dark on ice for 20 minutes. After washing with a Stain Buffer, fluorescence signals were measured using Attune NxT Flow Cytometer (available from Thermo Fisher […] K.K.), and the measurement results were analyzed using FlowJo software (Version 10.5.0, available from Becton, Dickinson and Company).

[2] = molecular target: T2, Flag-HER3 (V104L) (human, UniProt P21860 1-1342); test: as above
T2 construct: The entry already carries the mutation; Stably expressed in MDA-MB-231 cells, with or without HER2 overexpression; also called mutant-type HER3 (V104L)
Experimental: as §1

[3] = molecular target: T3, Flag-HER3 (V104M) (human, UniProt P21860 1-1342); test: as above
T3 construct: The entry already carries the mutation; Stably expressed in MDA-MB-231 cells, with or without HER2 overexpression; also called mutant-type HER3 (V104M)
Experimental: as §1

[4] = molecular target: T4, Flag-HER3 (A232V) (human, UniProt P21860 1-1342); test: as above
T4 construct: The entry already carries the mutation; Stably expressed in MDA-MB-231 cells, with or without HER2 overexpression; also called mutant-type HER3 (A232V)
Experimental: as §1

[5] = molecular target: T5, Flag-HER3 (P262H) (human, UniProt P21860 1-1342); test: as above
T5 construct: The entry already carries the mutation; Stably expressed in MDA-MB-231 cells, with or without HER2 overexpression; also called mutant-type HER3 (P262H)
Experimental: as §1

[6] = molecular target: T6, Flag-HER3 (G284R) (human, UniProt P21860 1-1342); test: as above
T6 construct: The entry already carries the mutation; Stably expressed in MDA-MB-231 cells, with or without HER2 overexpression; also called mutant-type HER3 (G284R)
Experimental: as §1

[7] = molecular target: T7, Flag-HER3 (D297Y) (human, UniProt P21860 1-1342); test: as above
T7 construct: The entry already carries the mutation; Stably expressed in MDA-MB-231 cells, with or without HER2 overexpression; also called mutant-type HER3 (D297Y)
Experimental: as §1

[8] = molecular target: T8, Flag-HER3 (G325R) (human, UniProt P21860 1-1342); test: as above
T8 construct: The entry already carries the mutation; Stably expressed in MDA-MB-231 cells, with or without HER2 overexpression; also called mutant-type HER3 (G325R)
Experimental: as §1

[9] = molecular target: T9, Flag-HER3 (S846I) (human, UniProt P21860 1-1342); test: flow cytometry on HER3-stably expressing MDA-MB-231 cells without HER2 overexpression, 0.1 to 100 nM
T9 construct: The entry already carries the mutation; Stably expressed in MDA-MB-231 cells, with or without HER2 overexpression; also called mutant-type HER3 (S846I)
Experimental: as §1

[10] = molecular target: T10, Flag-HER3 (E928G) (human, UniProt P21860 1-1342); test: as above
T10 construct: The entry already carries the mutation; Stably expressed in MDA-MB-231 cells, with or without HER2 overexpression; also called mutant-type HER3 (E928G)
Experimental: as §1

[11] = molecular target: T11, Flag-HER3 (WT) (human, UniProt P21860 1-1342); test: as above
T11 construct: Flag-tagged full-length HER3 stably expressed in MDA-MB-231 cells, with or without HER2 overexpression; also called wild-type HER3
Experimental: as §1

[12] = molecular target: T12, Flag-HER3 (Q809R) (human, UniProt P21860 1-1342); test: flow cytometry on HER2-overexpressing and HER3-stably expressing MDA-MB-231 cells, same method as Example 3
T12 construct: The entry already carries the mutation; Stably expressed in HER2-overexpressing MDA-MB-231 cells; also called mutant-type HER3 (Q809R)
Experimental: as §1, with “After the cells were suspended in 100 μL of Stain Buffer, an equal amount of 4% paraformaldehyde phosphate buffer (Wako Pure Chemical Industries, Ltd.) was added thereto, and the mixture was reacted in the dark on ice for 20 minutes.” left out

Measured: binding result

B1: HER3-ADC (1) (antibody, human IgG1, kappa, V domains shown)
VH: QVQLQQWGAGLLKPSETLSLTCAVYGGSFSGYYWSWIRQPPGKGLEWIGEINHSGSTNYNPSLKSRVTISVETSKNQFSLKLSSVTAADTAVYYCARDKWTWYFDLWGRGTLVTVSS
VL: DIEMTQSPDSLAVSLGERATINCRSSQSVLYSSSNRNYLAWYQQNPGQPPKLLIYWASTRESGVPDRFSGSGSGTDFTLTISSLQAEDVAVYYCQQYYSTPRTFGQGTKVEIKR
modifications: drug-linker (exatecan derivative) conjugated via a thioether bond to cysteine thiols formed at interchain disulfide sites; drug-linker (exatecan derivative) conjugated via a thioether bond to cysteine thiols formed at interchain disulfide sites; average number of conjugated drug molecules per antibody molecule in the range of 7 to 8
notes: also called anti-HER3 antibody-drug conjugate; conjugate of HER3-Ab (1)
binds: all assays above
